Values of other authors as cited in paper PMC10601247.

Assays:
[1] = target: flotillin-2 (Homo sapiens) (UniProt Q14254); test: SPR
[2] = target: flotillin-1 (Homo sapiens) (UniProt O75955); test: SPR
UniProt O75955, sequence (O75955 whole entry): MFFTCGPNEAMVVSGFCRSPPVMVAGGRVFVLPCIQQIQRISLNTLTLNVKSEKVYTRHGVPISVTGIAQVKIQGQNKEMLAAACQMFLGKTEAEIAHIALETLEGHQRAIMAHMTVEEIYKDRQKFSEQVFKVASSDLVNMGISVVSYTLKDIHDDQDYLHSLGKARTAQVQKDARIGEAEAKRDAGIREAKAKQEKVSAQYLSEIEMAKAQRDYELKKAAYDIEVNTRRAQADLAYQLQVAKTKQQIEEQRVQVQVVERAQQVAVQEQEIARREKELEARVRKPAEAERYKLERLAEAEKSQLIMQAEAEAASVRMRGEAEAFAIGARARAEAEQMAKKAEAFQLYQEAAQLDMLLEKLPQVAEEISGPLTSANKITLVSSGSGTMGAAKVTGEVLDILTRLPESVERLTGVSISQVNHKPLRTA

UniProt Q14254, sequence (Q14254 2-428): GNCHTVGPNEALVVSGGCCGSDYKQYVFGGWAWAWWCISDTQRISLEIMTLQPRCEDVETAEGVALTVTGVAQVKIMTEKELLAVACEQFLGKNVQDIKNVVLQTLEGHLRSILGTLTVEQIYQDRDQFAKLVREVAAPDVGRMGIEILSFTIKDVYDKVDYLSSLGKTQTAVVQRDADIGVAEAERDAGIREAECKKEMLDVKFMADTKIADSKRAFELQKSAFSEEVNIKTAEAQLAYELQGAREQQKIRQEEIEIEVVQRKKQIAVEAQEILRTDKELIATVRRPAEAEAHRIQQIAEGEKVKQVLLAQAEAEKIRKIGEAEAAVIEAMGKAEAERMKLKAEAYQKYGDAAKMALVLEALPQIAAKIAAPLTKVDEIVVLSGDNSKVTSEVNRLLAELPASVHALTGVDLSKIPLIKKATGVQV

Kd [1]: 31 nM | Kd [2]: 23 nM
Substance: MPP1 (from UniProt Q00013)
